Laboratory results: the supplement of paper PMC10567573
± gives the standard deviation.

Experiment: protein stability index of a GFP-peptide fusion (GPS, HEK-293T) (PSI 1-6); higher = more stable
[1] = treatment: DMSO, c terminus: a fixed tail appended
[2] = treatment: MLN4924 1 uM, 8 h, c terminus: a fixed tail appended
[3] = treatment: DMSO, c terminus: native
[4] = treatment: MLN4924 1 uM, 8 h, c terminus: native
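Also: 24-mer peptide tiles fused after GFP, lentivirally expressed, FACS-sorted into six equal bins by GFP/DsRed ratio, decoded by Illumina sequencing, PSI is the read-weighted mean bin number.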

Row | Sequence | protein stability index [1] | protein stability index [2] | protein stability index [3] | protein stability index [4]
1 | WGFGLEELYGLALRFFKEKDGKAF [ACBD3] | 2.4 ± 0.12 | 2.39 ± 0.61 | – | –
2 | KKEDTEKERDLRDVGDWRKNIEEK [TNNI2] | 5.38 ± 0.26 | 5.39 ± 0.21 | – | –
3 | RQLAYSTVGTPDYIAPEVFMQTGY [STK38L] | 3.06 ± 0.46 | 3.29 ± 0.42 | – | –
4 | LPPPDPNPPRAEFNYSVGFKDLNE [APBB1IP] | 4.42 ± 0.23 | 4.36 ± 0.075 | – | –
5 | LGPSPQRDPQAVKERALSAPWLSL [ZNF263] | 2.72 ± 0.14 | 2.77 ± 0.29 | – | –
6 | LLAHRLRRWHKSRLLQASGGGLTG [PCDHGA10] | 2.52 ± 0.47 | 2.07 ± 0.35 | – | –
7 | KEFQQVFIPECNDDGTYSQVQCHS [SMOC2] | 4.01 ± 0.36 | 4.38 ± 0.29 | – | –
8 | LQGALDLLAVLCVDGSGRARQAAC [ZSWIM9] | 2.2 ± 0.27 | 2.02 ± 0.18 | – | –
9 | RSVEEAPVYSVPQLLSAMGSLCSL [SCNN1D] | 2.44 ± 0.16 | 2.59 ± 0.4 | – | –
10 | LAGTFHYYSCERAKKAMGYQPLVT [NSDHL] | 2.2 ± 0.12 | 2.27 ± 0.13 | – | –
11 | LSRYLIEPCGPGKSKLTYMCRVDL [DLC1] | 2.99 ± 0.73 | 3.2 ± 1.3 | – | –
12 | DALNRRKAQLLARVNKEHEHKLKV [TRIM9] | 3.47 ± 0.11 | 3.29 ± 0.092 | – | –
13 | VLISNHVTPFDHNIVNLLTTCSTP [AUP1] | 2.59 ± 0.66 | 2.48 ± 0.35 | – | –
14 | REQMEQMKQRIAEENIMKSNIDKK [FAM50A] | 5.08 ± 0.31 | 5.24 ± 0.11 | – | –
15 | AKNAAKDMNGKSLHGKAIKVEQAK [RBMY1A1] | 4.64 ± 0.23 | 5.01 ± 0.53 | – | –
16 | RLEKAVAAAYTFLQRNPKHELTAK [P3H4] | 2.32 ± 0.12 | 2.49 ± 0.29 | – | –
17 | SHRVVLRPRGKERHKSGVHQPPQA [LYSMD4] | 3.91 ± 0.2 | 3.98 ± 0.3 | – | –
18 | LISKGANVNRTTANNDHTVLSLAC [ANKRD17] | 2.82 ± 0.22 | 2.81 ± 0.27 | – | –
19 | PLLCPSYQSYFKTIEELQQKILCA [KRT34] | 4 ± 0.19 | – | – | –
20 | ENKESWDKILALVPETIHDELQQS [PRIM1] | 4.82 ± 0.3 | 4.72 ± 0.39 | – | –
21 | KTLKAENAGLSSTAGLLREQVAQL [JUNB] | 3.72 ± 0.38 | 4 ± 0.15 | – | –
22 | RTIRHVYCKTSDGRVVPESQCQME [ADAMTSL2] | 4.08 ± 0.16 | 4.09 ± 0.31 | – | –
23 | ARIRDEEAQRASFLQNAVLAYVQA [LRRC45] | 2.46 ± 0.2 | 2.49 ± 0.29 | – | –

Row | Sequence | protein stability index [1] | protein stability index [2] | protein stability index [3] | protein stability index [4]
24 | NTVLRFLDLKGNNLRAAGAEALGK [LRRC45] | 3.31 ± 0.27 | 3.28 ± 0.25 | – | –
25 | LLCWSVWWALSTCGYFQVVNYTQG [SLC19A2] | 3.41 ± 0.59 | 3.61 ± 0.29 | – | –
26 | SVHFDGETIEGAPPLWAASAAGHL [FEM1A] | 3.42 ± 0.07 | 3.47 ± 0.5 | – | –
27 | PAPASPAISVVGVSAGGHTLSRPP [TFE3] | 4.37 ± 0.28 | 4.38 ± 0.25 | – | –
28 | IIWFSFELVVRFFACPSKTDFFKN [KCNA1] | 2.88 ± 0.37 | 3.04 ± 0.36 | – | –
29 | DEKAKPRDRQQAPGLGQESKAPGS [TLE6] | 5.49 ± 0.21 | 5.49 ± 0.21 | – | –
30 | APGPSPADKKRSGKKKISKADIGA [WAS] | 5.02 ± 0.23 | 4.86 ± 0.17 | – | –
31 | AISITAIAKYSDGASKAAGVFGFF [CMTM3] | 2.96 ± 0.88 | 2.78 ± 0.4 | – | –
32 | EKLSRGLRYYYDKNIIHKTSGKRY [ETS2] | 2.74 ± 0.34 | 2.92 ± 0.2 | – | –
33 | QRFRLDNLLNMAYGVKSPLSLIAR [ELAVL3] | 2.05 ± 0.14 | 2.19 ± 0.18 | – | –
34 | FGWETKIKAWMDRYEEANNNQYSE [KMT2E] | 3.1 ± 0.18 | 3.58 ± 0.13 | – | –
35 | HTEDFQKEEGTVNGASWHTVAGSL [CPXM2] | 4.63 ± 0.069 | 4.76 ± 0.38 | – | –
36 | NMSSSRGPLPVKRGPPPRSGGPPP [RBMX] | 4.41 ± 0.22 | 4.45 ± 0.45 | – | –
37 | FLQKSSVGITVLNLCALSVDRYRA [EDNRA] | 2.69 ± 0.54 | 2.75 ± 0.54 | – | –
38 | MEGKPMRRCTNIRPGETGMDVTSR [KLHL20] | 4.34 ± 0.085 | 4.41 ± 0.19 | – | –
39 | EELSVLEVFEGREDSIFGDPKKLL [MAGEA6] | 4.22 ± 0.35 | 4.32 ± 0.28 | – | –
40 | ALMRMLDNLGYRTGYPYRYPALRE [ADD1] | 2.79 ± 0.4 | 2.65 ± 0.59 | – | –
41 | VKEKFSPEAFTEQLYRYVTKLLV [ALG2] | – | – | 3.38 ± 0.3 | 3.16 ± 0.16
42 | PNRAGAPGESLECPAELRPQVPQP [TRAF3IP2] | 4.97 ± 0.16 | 5.07 ± 0.26 | – | –
43 | DHPGTPPHKTFRKLRLFDTPHTPK [WEE1] | 3.88 ± 0.11 | 3.98 ± 0.15 | – | –
44 | NGSDNLPSSAGSGDKPLSDPAPF [TPD52L2] | – | – | 5.44 ± 0.21 | 5.51 ± 0.18
45 | LPPPCAALWCSGHLNGHAMCQTKH [ADAMTS4] | 3.13 ± 0.24 | 3.17 ± 0.3 | – | –
46 | QLGTAGQGFSYSKSNGRGGSQAGG [MYOZ1] | 4.54 ± 0.2 | 4.93 ± 0.71 | – | –

Row | Sequence | protein stability index [1] | protein stability index [2] | protein stability index [3] | protein stability index [4]
47 | GDVPPSMSGSCAVCVDRVLYLFGG [KLHDC2] | 2.74 ± 0.79 | 2.47 ± 0.55 | – | –
48 | LRQLVESDINSLRRILDELTLCRS [KRT33B] | 2.31 ± 0.14 | 2.41 ± 0.15 | – | –
49 | KEGRPGIPGLPGLRGLPGERGTPG [SCARA5] | 4.21 ± 0.41 | 4.43 ± 0.24 | – | –
50 | FMLLTQARLFDEPQLASLCLDTID [BTBD1] | 2.29 ± 0.52 | 2.34 ± 0.48 | – | –
51 | LGTRESDTEVITVEKSSPATSLFV [BCL2L13] | 3.84 ± 0.15 | 4.04 ± 0.12 | – | –
52 | KIKRLRSQVQVSLEDYINDRQYDS [HNF4A] | 3.23 ± 0.19 | 3.45 ± 0.15 | – | –
53 | VLFSTHTLDKCGICQGDGSSCTHV [ADAMTSL2] | 3.8 ± 0.22 | 4.09 ± 0.19 | – | –
54 | QKTRLLEDSVSRLEKEIEVLERGD [PALM] | 4.96 ± 0.069 | 5.03 ± 0.27 | – | –
55 | VPPRRATISSWRNDRMSTRHDGYA [RBMY1A1] | 3.37 ± 0.092 | 3.4 ± 0.36 | – | –
56 | VMTLPSDLRKHRRKLLSPVSREEN [PPFIA4] | 3.61 ± 0.24 | 3.9 ± 0.49 | – | –
57 | NCFEITLELSCDKFPPEEELQREW [CPN1] | 2.77 ± 0.24 | 3.1 ± 0.22 | – | –
58 | VMARTRLVVPNKGYSSLDQSPDEK [FAM219A] | 4.62 ± 0.34 | 3.88 ± 0.42 | – | –
59 | CEHICVNSDDSYTCECLEGFRLAE [MATN2] | 4.11 ± 0.69 | 4.71 ± 0.62 | – | –
60 | MFVFQDGRWVNENCRLQSPYFSPS [CBY2] | 2.36 ± 0.37 | 2.05 ± 0.42 | – | –
61 | LLISCAVSYRGAWWYRNCHYANLN [TNXB] | 2.97 ± 0.19 | 2.99 ± 0.72 | – | –
62 | AEGSPGGPGDSQGRKRRQTSMTDF [CDKN1A] | 5.23 ± 0.1 | 5.13 ± 0.22 | – | –
63 | CDSTNAAIAKQALKKPIKGKQAPR [KMT5A] | 4.79 ± 0.22 | 4.74 ± 0.29 | – | –
64 | LVPDASKQRLMENTEDWRPRPGTG [PDLIM7] | 4.47 ± 0.2 | 4.53 ± 0.32 | – | –
65 | THLLMGLAGGKLILSLEGGYNLRA [HDAC6] | 3.08 ± 0.91 | 2.91 ± 1 | – | –
66 | DSDSEKQQQIHHIKNLYAFNLFCQ [VPS39] | 2.58 ± 0.29 | 2.71 ± 0.35 | – | –
67 | NMQQPMNVMTQSFGAVNLSSPSNM [CLINT1] | 3.44 ± 0.17 | 3.66 ± 0.17 | – | –
68 | ACMMTITFLPYTFSLMVTFPDVPL [TMEM175] | 3.1 ± 0.09 | 3.26 ± 0.33 | – | –
69 | PRRLGRLKYQAPDIDVQLSSELTD [NOP53] | 4.11 ± 0.48 | 4.14 ± 0.34 | – | –

Row | Sequence | protein stability index [1] | protein stability index [2] | protein stability index [3] | protein stability index [4]
70 | HFAEEERSKYDYLMILRRVVNEST [TENT5C] | 2.55 ± 0.26 | 2.86 ± 0.37 | – | –
71 | EEWLDILGNGLLRKKTLVPGPPGS [FKBP8] | 2.62 ± 0.12 | 2.78 ± 0.5 | – | –
72 | SGVVRIWDLRDQSVVRDLKGYPDG [TLE6] | 3.3 ± 0.31 | 3.42 ± 0.23 | – | –
73 | ESEFDIEDEDKSEPEQTGADAAED [RBBP5] | 5.73 ± 0.18 | 5.826 ± 0.029 | – | –
74 | IQQTTRYFSTPQTMDLFLNYSMNM [NANOGP8] | 2.7 ± 0.48 | 2.58 ± 0.58 | – | –
75 | MHLARCRWASAPPLYTLIDVLKYS [ZSWIM9] | 2.94 ± 0.22 | 2.43 ± 0.35 | – | –
76 | ELANGKPQTRSGPECGLAKKPPEE [ADAMTSL2] | – | 4.78 ± 0.42 | – | –
77 | EPTAAATARRSKRERREEDRAPAE [PWWP2B] | 5.7 ± 0.095 | 5.45 ± 0.14 | – | –
78 | DYVMTTLLFSDKNVNSNLITWNRV [TRIP13] | 2.4 ± 0.75 | 2.36 ± 0.62 | – | –
79 | HELGHVFNMLHDNSKPCISLNGPL [ADAMTS4] | 3 ± 0.49 | 2.93 ± 0.28 | – | –
80 | WLPLHYAAWQGHLPIVKLLAKQPG [RIPK4] | 1.94 ± 0.24 | 2.63 ± 0.81 | – | –
81 | ENPDLQEAYIAKQKRLKSKLLDHD [GDAP1] | 4.53 ± 0.11 | 4.67 ± 0.15 | – | –
82 | PTMAPAGQPAPVSMVPPSPAMAAS [SNAP91] | 4.75 ± 0.22 | 4.89 ± 0.28 | – | –
83 | IWAKTPPITRKAAQLYTLWVTFQV [DHCR7] | 3.3 ± 0.52 | 2.81 ± 0.6 | – | –
84 | DMRRDEEGSLCAAHLPKAQLSGYA [FBF1] | 4.12 ± 0.25 | 4.15 ± 0.25 | – | –
85 | FLLIVTLCVILYKKVHKGTVPKND [GLT8D2] | 2.59 ± 0.8 | 2.3 ± 0.59 | – | –
86 | FRKVKQMHLNFMDEKDRIITAFYN [DNAJC4] | 2.26 ± 0.2 | 2.41 ± 0.28 | – | –
87 | AARAGHVCTVQFLISKGANVNRTT [ANKRD17] | 1.83 ± 0.32 | 2.07 ± 0.21 | – | –
88 | ILLQDHIRDLDVVVVSVAGAFRKG [ATL3] | 2.94 ± 0.34 | 2.57 ± 0.68 | – | –
89 | VLGSQDALPIATAFTEYVHAYFRG [FCHO1] | 2.51 ± 0.25 | 2.43 ± 0.21 | – | –
